Measured values: paper PMC4031664 (Prion, 2013)

Key:
native gel or EMSA = target: the molecule itself; test: native gel or EMSA
[1] = target: the molecule itself

B1: full-length PrP (mouse PrP 23–231) (natural protein)
chain: not shown
B1: binds (native gel or EMSA).

B2: Syrian hamster PrP90–232 (domain or fragment)
chain: not shown
B2: binds (native gel or EMSA).

B3: C-terminal PrP domain (mouse PrP 120–231) (domain or fragment)
chain: not shown
B3: binds (native gel or EMSA).

B4: PrP-like ectodomain of ZIP5 (domain or fragment)
chain: WVGGSVPNLGPAEQEQNHYLAQLFGLYGENGTLTAGGLARLLHSLGLGRVQGLRLGHHEPPTGRAAPTSGDNFTHRLQEPELSVDIWAGMPLGPSGWGDQEESKAPDLHGSGPSSLDLFQRLLLLDHSLADHLNEDCLNGSQLLVNFGLSPVAPLTPRQFALLCPALLYQIDSRVCIKTPAPAPPGDVLSA
In the case of B4, the “stoichiometry N” value [1] is reported as 2.
